Measured values as given in the Immune Epitope Database (IEDB).

How the values were obtained:
HLA-A*11:01 = assay: IEDB peptide-MHC binding, purified MHC/direct/fluorescence; filed as Kd, often an IC50 or EC50 that approximates it; ≥ and ≤ were set here for values at or beyond the usual limits of such assays; conditions: source organism: Mycobacterium tuberculosis
HLA-B*07:02 = assay: as above; conditions: source organism: Mycobacterium tuberculosis
HLA-A*31:01 = assay: as above; conditions: source organism: Mycobacterium tuberculosis
HLA-B*58:01 [1] = assay: as above; conditions: source organism: Mycobacterium tuberculosis
HLA-A*03:01 = assay: as above; conditions: source organism: Mycobacterium tuberculosis
HLA-A*29:02 = assay: as above; conditions: source organism: Mycobacterium tuberculosis
HLA-B*57:01 [2] = assay: as above; conditions: source organism: Mycobacterium tuberculosis
HLA-B*46:01 = assay: as above; conditions: source organism: Mycobacterium tuberculosis
HLA-A*01:01 = assay: as above; conditions: source organism: Mycobacterium tuberculosis
HLA-B*15:01 [3] = assay: as above; conditions: source organism: Mycobacterium tuberculosis
HLA-A*69:01 = assay: as above; conditions: source organism: Mycobacterium tuberculosis
HLA-B*39:01 = assay: as above; conditions: source organism: Mycobacterium tuberculosis
HLA-B*27:05 = assay: as above; conditions: source organism: Mycobacterium tuberculosis
HLA-B*44:02 = assay: as above; conditions: source organism: Mycobacterium tuberculosis
HLA-B*40:01 = assay: as above; conditions: source organism: Mycobacterium tuberculosis
HLA-B*15:03 = assay: IEDB peptide-MHC binding, purified MHC/competitive/radioactivity; filed as Kd, often an IC50 or EC50 that approximates it; ≥ and ≤ were set here for values at or beyond the usual limits of such assays; conditions: source organism: Vaccinia virus WR
HLA-B*58:01 [4] = assay: as above; conditions: source organism: Pan troglodytes
HLA-B*57:01 [5] = assay: as above; conditions: source organism: Pan troglodytes
HLA-B*08:01 = assay: as above; conditions: source organism: Vaccinia virus WR
HLA-A*32:01 = assay: as above; conditions: source organism: Vaccinia virus WR
HLA-B*15:01 [6] = assay: as above; conditions: source organism: Vaccinia virus WR
HLA-A*30:01 = assay: as above; conditions: source organism: Vaccinia virus WR

Sequence FHSRFVQAL has a Kd (HLA-A*11:01) of at least 20 µM, a Kd (HLA-B*07:02) of at least 20 µM and a Kd (HLA-A*31:01) of at least 20 µM. For the same sequence, the Kd (HLA-B*58:01 [1]) was at least 20 µM, the Kd (HLA-A*03:01) was at least 20 µM and the Kd (HLA-A*29:02) was at least 20 µM. It also gave a Kd (HLA-B*57:01 [2]) of at least 20 µM, a Kd (HLA-B*46:01) of at least 20 µM and a Kd (HLA-A*01:01) of at least 20 µM. The Kd (HLA-B*15:01 [3]) was at least 20 µM, the Kd (HLA-A*69:01) was at least 20 µM and the Kd (HLA-B*39:01) was 39.9 nM. It also gave a Kd (HLA-B*27:05) of at least 20 µM, a Kd (HLA-B*44:02) of at least 20 µM and a Kd (HLA-B*40:01) of at least 20 µM.

IKTMMINPF showed a Kd (HLA-B*15:03) of 0.000191 µM.

With YRAVVPLVY the Kd (HLA-B*58:01 [4]) was 1500 nM and the Kd (HLA-B*57:01 [5]) was 12.6 µM.

For IKENSIYSF, the Kd (HLA-B*15:03) was 0.00145 µM.

With KVREHTFVK the Kd (HLA-B*08:01) was at least 45400 nM, the Kd (HLA-A*32:01) was 148 nM and the Kd (HLA-B*15:03) was 19.3 µM. For the same sequence, the Kd (HLA-B*15:01 [6]) was 4120 nM and the Kd (HLA-A*30:01) was 2.12 nM.

FSKKKVCFV showed a Kd (HLA-B*08:01) of 5.98 nM, a Kd (HLA-A*32:01) of at least 35400 nM and a Kd (HLA-B*15:03) of 13.1 µM. The Kd (HLA-B*15:01 [6]) was 1850 nM and the Kd (HLA-A*30:01) was 1160 nM.
